Where no end group is shown, it is not given here.
Tests used:
[1] = target: T1, recombinant human full-length TDP-43 (human, UniProt Q13148 1-414); test: Luminex bead assay, antibody serial dilution, FL TDP-43 beads
T1 construct: Recombinant full-length protein; also called FL TDP-43; recFL TDP-43

TDP-1 peptide = target: T2, TDP-1 peptide (human); test: Luminex bead assay, antibody serial dilution, TDP-1 peptide beads
T2 construct: Immunogen peptide; conjugated to Luminex beads in the assay; also called TDP-43 aa 212-272
T2 peptide: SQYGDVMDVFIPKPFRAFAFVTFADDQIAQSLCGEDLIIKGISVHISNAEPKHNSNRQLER

TDP-215 peptide = target: T3, TDP-215 peptide (human); test: indirect ELISA, 8-mer peptide library, OD 405 nm
T3 construct: same ELISA method as for the biotinylated 15-mers
T3 peptide: GDVMDVFI
Method: Serum-free supernatants were harvested from stable hybridomas. The supernatants containing antibodies of interest were then screened by an indirect ELISA assay to determine epitopes. Epitopes were mapped using a library of TDP-43 15-mer peptides. Briefly, 96-well streptavidin-coated 96-well ELISA plates were incubated with 5 μg/mL of biotinylated 15-mer peptides spanning the amino acids (aa) 199-285 of human TDP-43 with 9 aa offset and 6 aa overlap. Plates were washed thoroughly with 0.05% Tween-20/PBS and then blocked with 1% bovine serum albumin (BSA) in 0.05% Tween-20/PBS for 1 hour at 37° C. The antibody contained in the hybridoma supernatant was then added at the indicated dilutions, and incubated for 2 hours at 37° C. after which the plates were washed as described previously. An AP-conjugated anti-mouse IgG secondary antibody (Jackson ImmunoResearch Laboratories, United Kingdom) was added at 1/1000 dilution in 0.05% Tween-20/PBS for 1 hour at 37° C. After the final wash, plates were incubated with pNPP (Sigma-Aldrich, Switzerland) an AP substrate solution, and read at 405 nm using an ELISA plate reader (Tecan).
Furthermore, antibodies were tested using an indirect ELISA on a peptide library of 8-mer peptides with 7 aa overlap covering the sequence of human TDP-43 from aa 210 to aa 231, using the same ELISA method as describe previously in this section.

TP-26 = target: T4, TP-26 (also: biotinylated, site not given here); test: indirect ELISA, biotinylated 15-mer on streptavidin plate, hybridoma supernatant
T4 construct: also called TP-26 peptide
T4 peptide: FRAFAFVTFADDQIA
In short: (§1)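 Biotinylated 15-mer peptides (5 μg/mL) spanning human TDP-43 aa 199-285 captured on streptavidin plates, blocked with 1% BSA 1 h 37° C. Hybridoma supernatant added at indicated dilutions, 2 h 37° C; AP anti-mouse IgG 1/1000, 1 h 37° C; pNPP read at 405 nm.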

TP-31 = target: T5, TP-31 (also: biotinylated, site not given here); test: as above
T5 construct: also called TP-31 peptide
T5 peptide: ERSGRFGGNPGGFGN
In short: as §1

[2] = target: T6, aggregated recombinant human FL TDP-43 (human, UniProt Q13148 1-414); test: SPR avidity (Biacore T200), aggregated TDP-43 immobilised, antibody as analyte, 1:1 model
T6 construct: also called TDP-43 aggregates
T6 sequence (Q13148 whole entry): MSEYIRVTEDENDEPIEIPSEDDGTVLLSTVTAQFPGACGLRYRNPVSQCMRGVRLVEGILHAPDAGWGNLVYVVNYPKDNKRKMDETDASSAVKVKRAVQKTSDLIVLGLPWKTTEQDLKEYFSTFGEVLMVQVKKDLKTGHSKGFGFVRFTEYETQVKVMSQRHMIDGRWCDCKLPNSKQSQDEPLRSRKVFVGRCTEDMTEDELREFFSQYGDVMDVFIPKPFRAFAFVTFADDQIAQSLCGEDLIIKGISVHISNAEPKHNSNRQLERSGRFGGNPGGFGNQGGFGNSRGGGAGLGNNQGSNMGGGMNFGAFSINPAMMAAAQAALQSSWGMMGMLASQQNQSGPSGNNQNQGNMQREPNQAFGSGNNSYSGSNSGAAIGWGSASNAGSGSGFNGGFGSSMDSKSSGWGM
Method: (§2) Avidity measurements were performed on an SPR instrument (Biacore T200, GE Healthcare Life Sciences) using CM5 Series S sensor chips. Recombinant human FL TDP-43 monomers or aggregated recombinant human FL TDP-43 was immobilized on a CM5 chip using amine coupling, injecting at a flow rate of 5 μl/min for 420 seconds. Conditions were optimized so that less than 200 RU protein was immobilized. Binding of the antibodies and the control antibody (2E2-D3) were obtained by injecting at: 1.37, 4.11, 12.33, 37, 111, and 333 nM in 1×PBS P+ at a flow rate of 50 μl/min for 90 s contact time and 600 s dissociation phase, with three regeneration cycles of the ligand surface by 10 mM Glycine-HCl (pH 1.7). Kinetics were analyzed using a 1:1 fitting model (see FIG. 8).

TDP-3 peptide = target: T7, TDP-3 peptide (human); test: Luminex bead assay, TDP-3 peptide beads (irrelevant target)
T7 construct: Irrelevant control peptide; conjugated to Luminex beads in the assay; also called TDP-43 aa 310-370; irrelevant target
T7 peptide: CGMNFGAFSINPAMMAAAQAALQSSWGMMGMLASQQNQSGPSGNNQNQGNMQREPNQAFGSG

BSA = target: T8, BSA (bovine, UniProt P02769); test: indirect ELISA, control coat in the 15-mer series, hybridoma supernatant
T8 construct: not specified; also called bovine serum albumin
T8 sequence (P02769 25-607 limits assumed): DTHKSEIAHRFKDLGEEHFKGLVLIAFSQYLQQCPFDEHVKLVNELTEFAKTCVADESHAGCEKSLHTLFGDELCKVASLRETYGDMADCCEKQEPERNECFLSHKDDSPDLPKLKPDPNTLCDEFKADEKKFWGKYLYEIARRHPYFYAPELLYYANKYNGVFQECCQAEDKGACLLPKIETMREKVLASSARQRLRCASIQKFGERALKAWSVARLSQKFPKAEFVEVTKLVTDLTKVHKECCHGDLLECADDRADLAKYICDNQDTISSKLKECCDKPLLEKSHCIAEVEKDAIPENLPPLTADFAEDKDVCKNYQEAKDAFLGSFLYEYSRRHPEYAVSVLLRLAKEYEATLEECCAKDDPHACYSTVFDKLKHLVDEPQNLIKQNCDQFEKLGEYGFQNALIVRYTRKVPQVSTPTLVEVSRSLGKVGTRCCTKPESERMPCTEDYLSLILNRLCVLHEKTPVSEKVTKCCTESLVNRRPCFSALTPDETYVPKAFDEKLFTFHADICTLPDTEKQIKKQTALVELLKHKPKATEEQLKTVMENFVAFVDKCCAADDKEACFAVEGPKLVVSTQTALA

[3] = target: T1, recombinant human full-length TDP-43; test: SPR avidity (Biacore T200), TDP-43 monomer immobilised, antibody as analyte, 1:1 model
Method: as §2

T1 sequence (Q13148 whole entry): as the sequence (Q13148 whole entry) above

B1: ACI-7062-406E3-Ab1 (antibody, IgG2a, V domains shown)
VH: QVTLKESGPAILQPSQTLSLTCSFSGFSLTTYGIGVGWIRQPSGKGLEWLAHIWWNDNKYYNTALKSRLTVSKDTSNNQVFLKIASVDTADTATYYCARVYGNLYYFAYWGQGTTLTVSS
VL: DVLMTQTPLSLPVSLGDRASISCRSSQSIVHRSGNTYLEWYLQKPGQSPKLLIYKVSNRFSGVPDRFSGSGSGTDFTLKISRVEAEDLGVYYCFQGSHVPTFGAGTKLELKR
notes: also called 406E3D5; clone 5
[1]
  EC50: < 0.01 nM
TDP-1 peptide
  EC50: < 0.01 nM
TDP-215 peptide
  binding result: binds
TP-26
  binding result: no binding
TP-31
  binding result: no binding
[2]
  Kd: 0.2 nM
TDP-3 peptide
  binding result: no binding
BSA
  binding result: no binding
[3]
  Kd: 0.8 nM

B2: ACI-7062-406E3-Ab2 (antibody, IgG2a, V domains shown)
VH: QVTLKESGPAILQPSQTLSLTCSFSGFSLTTYGIGVGWIRQPSGKGLEWLAHIWWNDNKYYNTALKSRLTVSKDTSNNQVFLKIASVDTADTATYYCARVYGNLYYFAYWGQGTTLTVSS
VL: DVLMTQTPLSLPVSLGDRASISCRSSQSIVHRSGNTYLEWYLQKPGQSPKLLIYKVSNRFSGVPDRFSGSGSGTDFTLKISRVEAEDLGVYYCFQGSHVPTFGAGTKLELKR
notes: also called 406E3G10; clone 6
[1]
  EC50: 0.01 nM
TDP-1 peptide
  EC50: < 0.01 nM
TDP-215 peptide
  binding result: binds
TP-26
  binding result: no binding
TP-31
  binding result: no binding
[2]
  Kd: 0.4 nM
TDP-3 peptide
  binding result: no binding
BSA
  binding result: no binding
[3]
  Kd: 0.3 nM

B3: ACI-7062-416A11-Ab1 (antibody, IgG2a, V domains shown)
VH: QVTLKESGPGILQSSQTLSLTCSFSGFSLSTYGIGVGWIRQPSGKGLEWLAHIWWNDNKYYNTALKSRLTISKDTSNNQVFLKIASVDTADAATYYCARVYGNLYYFGYWGQGTTLTVSS
VL: DVLMTQTPLSLPVSLGDRASISCRSSQSIVHSSGNTYLEWYLQKPGQSPKLLIYKVSNRFSGVPDRFSGSGSGTDFTLKISRVEAEDLGVYYCFQGSRVPTFGAGTKLELKR
notes: also called 416A11B3; clone 18
[1]
  EC50: 0.015 nM
TDP-1 peptide
  EC50: < 0.01 nM
TDP-215 peptide
  binding result: binds
TP-26
  binding result: no binding
TP-31
  binding result: no binding
[2]
  Kd: 1.2 nM
TDP-3 peptide
  binding result: no binding
BSA
  binding result: no binding
[3]
  Kd: 2.4 nM

B4: ACI-7062-410H3-Ab1 (antibody, IgG1, V domains shown)
VH: DVQLVESGGGLVQPGGSRRLSCAASGFTFSSFGMHWVRQAPEKGLEWVAYIRSGSDIIYYADSVKGRFTISRDNPENTLFLQMTSLRSEDTAMYYCARSGTTVPFDYWGQGTSLTVSS
VL: DIVMTQSPSSLAMSVGQKVTMSCKSSQSLLNSGNQKNYLAWYQQKPGQSPELLLYFASTRASGVPDRFIGSGSGTDFTLTISSVQAEDLADYFCQQHYSIPLTFGAGTKLELKR
notes: also called 410H3B9; clone 7
[1]
  EC50: 0.03 nM
TDP-1 peptide
  EC50: < 0.01 nM
TDP-215 peptide
  binding result: binds
TP-26
  binding result: no binding
TP-31
  binding result: no binding
[2]
  Kd: 19.2 nM
TDP-3 peptide
  binding result: no binding
BSA
  binding result: no binding
[3]
  Kd: 6 nM

B5: ACI-7062-412A7-Ab1 (antibody, IgG2b, V domains shown)
VH: DVQLVESGGGLVQPGGSRRLSCAASGFTFSSFGMHWVRQAPEKGLEWVAYIRSGSDIIYYADSVKGRFTISRDNPENTLFLQMTSLRSEDTAMYYCARSGTTVPFDYWGQGTSLTVSS
VL: DIVMTQSPSSLAMSVGQKVTMSCKSSQSLLNSGNQKNYLAWYQQKPGQSPELLLYFASTRASGVPDRFIGSGSGTDFTLTISSVQAEDLADYFCQQHYSIPLTFGAGTKLELKR
notes: also called 412A7B7; clone 9
[1]
  EC50: 0.03 nM
TDP-1 peptide
  EC50: < 0.01 nM
TDP-215 peptide
  binding result: binds
TP-26
  binding result: no binding
TP-31
  binding result: no binding
[2]
  Kd: 0.3 nM
TDP-3 peptide
  binding result: no binding
BSA
  binding result: no binding
[3]
  Kd: 1 nM

From US20220025023A1 (AC IMMUNE, published 2022)
